Laboratory results taken from the supplement of paper PMC9170038.

Tested on: MS2 coat protein
Assay: apparent KD of MS2 coat protein; higher = weaker reporter binding
Conditions: Eterna round: R107; input ligand: arginine 13.2 mM
In short: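 Designed RNA switches, transcribed on-chip from Illumina sequencing clusters, were titrated with SNAP-549-labelled MS2 coat protein from 0.7 or 1.5 nM to 3 µM in twofold steps. The solution was 100 mM Tris-HCl pH 7.5, 80 mM KCl, 4 mM MgCl2, with constant ligand or without it. Apparent KD is the median over each design's normalised cluster binding-curve fits.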

In order of falling “apparent KD of MS2 coat protein” value:
1. GCACCAGGUACGGAUACCAGCUGCCACAGUUACAUGAGGAUCACCCAUGUGAAAACGUGUAGCCCUUGGCAGCUGUACCUGGUGC [SSThB NP+V+V2 #8 Same Structure]  198 nM
2. ACAUGAGGAUCACCCAUGUUCCUCAUUGAUACCAGUGAAUUUAGACGCCCUUGGCAGCGAGUUUUUUUAGAAGAAGUUUUUUUUU [6.F]  158 nM
3. ACGUAAAGCAGAAGGAGCGUCUUCAAUUUACAUGAGGAUCACCCAUGUUUUGUGAUCAUAUGACAGGUAGGUCGCUGAAGUACGA [JR_SSArginiB_Sub002]  85.9 nM
4. GGGCCCGGGCGCGAGCCCGGGCCCAUUGAUACCAGUGAGAGAGAGCGCCCUUGGCAGCGAAUCCUAACAUGAGGAUCACCCAUGU [5.N]  49.5 nM
5. GGAUAGGACACGGCCGCCACUACCUAGGAUACUAGCAACAUUUGGGUAUAUGAGGAUCACCCAUAUAGGACCGGGUGUCCUAUCG  48.5 nM
6. UAAACACAUGAGGAUCACCCAUGUCAUGAUACCAGUCAACAUGAGGACCCUUGGCAGCAUAAAAUGGGUAACAUGAGGAUCACCC [AstrosEXyTheA#2]  46.2 nM
7. CGUGGUUGAGAUGGGCCUCUGAUAAGUCUGCGAGGACCGGUACGGCCGCCACUCGAGGACAUGAGGAUCACCCAUGUACUUCGCG [Vequar]  41.1 nM
8. AGCUCAGAGAGUGAUACCAGACUACAUGAGGAUCACCCAUGUUACUUUUAAAUAUCAUGAGUCCCUUGGCAGCACAAGAAGAGCA [JR_ExcTheophyB_Sub016]  40.1 nM
9. UAUCCACAUGAGGAUCACCCAUGUUAGGAAGGAGCGGUGAGUGCACCAGGUAGGUCGCCUAGCUGAGGACUGUCGGUGGAUUCGU [Exclusion - Arginine A (Freestyle 20)]  39.7 nM
10. GGUAUGUAUUCGGAAACGAAUGCAUACCAUCGAGGACCGGUACGGCCGCCACUCGUGGCUGAUCAACAUGAGGAUCACCCAUGUA [Ex Tryptophan A 1]  36.1 nM
11. GUUGGAUUUUCGGCCGCCACUGAGAGAGUCAUGUGAACAUGAGGAUCACCCAUGUAAUAUAUAUACAGGACCGGGAGGGUUGUAA [4.L]  35 nM
12. AUUAUCAUGGUCAUAUAUAUUUCGUCAGAUACCAGACUAGAUAUAGUCCCUUGGCAGCUGUUACAUGAGGAUCACCCAUGUUAUU [JR_ExcTheophyA_Sub017]  32.2 nM
13. CACGGAAGAGUGGAUCACCCUCUUAAUAAACGAGGACCGGUACGGCCGCCACUCGAAAACCGUGACCUGUACGAAAAGUGCAGGA  31.3 nM
14. GGGCGCUAUCCCGCGAGGGAUAGCGUUCGACGAGGACCGGUACGGCCGCCACUCGAACGAGUGGUGACAUGAGGAUCACCCAUGU [Naa]  28.7 nM
15. GCUGUUGCGGUGAGGUAUCCGGCUGUGGAAGGAGCGCGGAAUGCCGCAGGUAGGUCGCCACAUGAGGAUCACCCAUGUCGAUAUA [Atzalama]  25.6 nM
16. AGAGUCUAGUCGGCCGCCACUCAUGUCCUAAGGACAUGAGGAUCACCCAUGUACCAAAGGUACAUGAGGACCGGGACUGGACUCA [Omei Tryp B SS C v1]  23.3 nM
17. UCGGACAUGAGGAUCACCCAUGUAAAUCCUCGAGGACCGGUACGGCCGCCACUCGAACGAGUGGCGCGCGAGUGCGCACUCGCGC [aFa]  22.2 nM
18. UGCAUGAUCUGAAGGAGCGUGUAUGAUGAUAACAUGAGGAUCACCCAUGUCGAGACGGUAACACAGGUAGGUCGCAGAUCAUGCU [Arg B SS t4]  21.4 nM
19. CAUACUUUAGUAUGUAAUGUGGACAGUGAUACCAGAUACGAAAGUAUCCCUUGGCAGCACAACAUGAGGAUCACCCAUGUAUUUU [Theophylline A 3]  20.9 nM
20. AAAUAAAUACAUGAGGAUCACCCAUGUGAAGGAGCGCCCGUUAGGGCAGGUAGGUCGCACAUGAAUAACUCCGUGCAAAAGCACA [ArgEX 18 #OpenEnded]  20.9 nM
21. GGCAGUCAUAGGAGGGCAAAUAUACUCGAAGGAGCGUCAUAGUAGGCAGGUAGGUCGCGAGACAUGAGGAUCACCCAUGUAGAGA [wwzmullin]  20.2 nM
22. ACACCGAAAGGUGCAUUUACCUUAUCAGAUACCAGACUUUACGUUGUCCCUUGGCAGCUGUAUCACAUGAGGAUCACCCAUGUUG [JR_SSTheophyA_Sub011]  19.3 nM
23. GCACCAGGUACGGAUACCAGCUAUAGGUACAGCGGAGGACAUGAGGAUCACCCAUGUGGUAGCCCUUGGCAGCUGUACCUGGUGC [EThB NP+V+V2 #1 +-Same Structure]  17.7 nM
24. GACAUGAGGAUCACCCAUGUACCGCGAGAAGGAGCGCGGAUAAACGCAGGUAGGUCGCUCGUGGGCUCACAUUCAAUUGUAAGCU [Digece]  17.5 nM
25. AACAUGAGGAUCACCCAUGUUUGCUAUGAAGGAGCGUCGGAAAUGACAGGUAGGUCGCAUGGUAGACCGAGUAUUAUCUGUAUGG [EAA NP+V+V2 #11]  14.9 nM
26. GAACAACAUGAGGAUCACCCAUGUCAGGAUACCAGUCGAAAGUCAGACCCUUGGCAGCCUAUCACUCAGCAAAUAGAUAGUACAA [theeternabot_sameState_MS2_Theo_A_12]  14.7 nM
27. CUACAUUUGUAGAAACCGGUCAACAAUAAUCGAGGACCGGUACGGCCGCCACUCGAUGUAAAAUAAACAUGAGGAUCACCCAUGU [Tryptophan A 12]  13.5 nM
28. UGACAUUGCUGCGAUACCAGACAUGAGGAUCACCCAUGUACCAAGGUACGAAAAUAACAUGUCCCUUGGCAGCGCAGCAAUGUCU [MAT - Exclusion Theophlline B - Mod of Eli - D4]  12.6 nM
29. GAGCUGAUGUAGAGCUUAUAUAAGAGAGAUACCAGUACAGAAAUGUACCCUUGGCAGCUCAACUUUACAUGAGGAUCACCCAUGU [Ex Theophylline A 20]  12.3 nM
30. GGACCAUGGCGCGAUACCAGCUUGAGUGUACUGGCCAGGUACAUGAGGAUCACCCAUGUAAGCCCUUGGCAGCGCGCCAUGGUCC [#1 Exclusion - Theophylline B Attempt #24 (HarryS)]  10.4 nM
31. CUCCCGUGAGCGGCCGCCACUGGAGGCCUCGCGCGACAUGAGGAUCACCCAUGUUGGCCCGGCCUCAGGACCGGGUUCGCGUGAG [Same State - Tryptophan B Attempt #6 (HarryS)]  7.47 nM

Same assay, conditions: Eterna round: R107; input ligand: none

In order of falling “apparent KD of MS2 coat protein” value:
1. GACAUGAGGAUCACCCAUGUACCGCGAGAAGGAGCGCGGAUAAACGCAGGUAGGUCGCUCGUGGGCUCACAUUCAAUUGUAAGCU [Digece]  39.2 nM
2. UGCAUGAUCUGAAGGAGCGUGUAUGAUGAUAACAUGAGGAUCACCCAUGUCGAGACGGUAACACAGGUAGGUCGCAGAUCAUGCU [Arg B SS t4]  23.2 nM
3. CUCCCGUGAGCGGCCGCCACUGGAGGCCUCGCGCGACAUGAGGAUCACCCAUGUUGGCCCGGCCUCAGGACCGGGUUCGCGUGAG [Same State - Tryptophan B Attempt #6 (HarryS)]  9.18 nM
